Assay results taken from the Human Domainome abundance scans (Beltran et al. 2025).
± gives the uncertainty stated by the source.

B1: E3 ubiquitin-protein ligase TRIM36, residues 208 to 252; numbered along this chain, Q9NQ86 (parent)
chain: KILMCPEHETERINMYCELCRRPVCHLCKLGGNHANHRVTTMSSA

Variants of: B1
Experiment: abundance fitness (aPCA) (normalised: wild type 0, dead -1); higher = more abundant; growth selection in yeast, the domain comes from the species named
Details: Homo sapiens

| Variant | abundance fitness |
| --- | --- |
| KILMCPEHETERINMYCELCRDPVCHLCKLGGNHANHRVTTMSSA | -0.197 ± 0.11 |
| KILMCPEHETERINMYCELCRMPVCHLCKLGGNHANHRVTTMSSA | -0.163 ± 0.086 |
| KILMCPEHETERINMYCELCRIPVCHLCKLGGNHANHRVTTMSSA | -0.227 ± 0.11 |
| KILMCPEHETERINMYCELCRGPVCHLCKLGGNHANHRVTTMSSA | -0.116 ± 0.058 |
| KILMCPEHETERINMYCELCRCPVCHLCKLGGNHANHRVTTMSSA | -0.118 ± 0.062 |
| KILMCPEHETERINMYCELCRFPVCHLCKLGGNHANHRVTTMSSA | -0.113 ± 0.069 |
| KILMCPEHETERINMYCELCRHPVCHLCKLGGNHANHRVTTMSSA | 0.013 ± 0.23 |
| KILMCPEHETERINMYCELCRWPVCHLCKLGGNHANHRVTTMSSA | -0.34 ± 0.079 |
| KILMCPEHETERINMYCELCRLPVCHLCKLGGNHANHRVTTMSSA | -0.029 ± 0.075 |
| KILMCPEHETERINMYCELCRAPVCHLCKLGGNHANHRVTTMSSA | 0.01 ± 0.052 |
| KILMCPEHETERINMYCELCRVPVCHLCKLGGNHANHRVTTMSSA | -0.01 ± 0.055 |
| KILMCPEHETERINMYCELCRNPVCHLCKLGGNHANHRVTTMSSA | -0.291 ± 0.16 |
| KILMCPEHETERINMYCELCRYPVCHLCKLGGNHANHRVTTMSSA | -0.265 ± 0.1 |
| KILMCPEHETERINMYCELCRQPVCHLCKLGGNHANHRVTTMSSA | 0.036 ± 0.059 |
| KILMCPEHETERINMYCELCRPPVCHLCKLGGNHANHRVTTMSSA | -0.344 ± 0.077 |
| KILMCPEHETERINMYCELCRKPVCHLCKLGGNHANHRVTTMSSA | 0.068 ± 0.067 |
| KILMCPEHETERINMYCELCRSPVCHLCKLGGNHANHRVTTMSSA | 0.047 ± 0.069 |
| KILMCPEHETERINMYCELCREPVCHLCKLGGNHANHRVTTMSSA | 0.034 ± 0.062 |
| KILMCPEHETERINMYCELCRTPVCHLCKLGGNHANHRVTTMSSA | -0.09 ± 0.1 |

| Variant | abundance fitness |
| --- | --- |
| KILMCPEHETERINMYCELCRRDVCHLCKLGGNHANHRVTTMSSA | 0.037 ± 0.076 |
| KILMCPEHETERINMYCELCRRRVCHLCKLGGNHANHRVTTMSSA | -0.148 ± 0.05 |
| KILMCPEHETERINMYCELCRRGVCHLCKLGGNHANHRVTTMSSA | 0.006 ± 0.055 |
| KILMCPEHETERINMYCELCRREVCHLCKLGGNHANHRVTTMSSA | 0.037 ± 0.063 |
| KILMCPEHETERINMYCELCRRSVCHLCKLGGNHANHRVTTMSSA | -0.058 ± 0.065 |
| KILMCPEHETERINMYCELCRRQVCHLCKLGGNHANHRVTTMSSA | -0.1 ± 0.071 |
| KILMCPEHETERINMYCELCRRAVCHLCKLGGNHANHRVTTMSSA | -0.064 ± 0.058 |
| KILMCPEHETERINMYCELCRRMVCHLCKLGGNHANHRVTTMSSA | -0.189 ± 0.092 |
| KILMCPEHETERINMYCELCRRCVCHLCKLGGNHANHRVTTMSSA | -0.2 ± 0.092 |
| KILMCPEHETERINMYCELCRRHVCHLCKLGGNHANHRVTTMSSA | -0.113 ± 0.067 |
| KILMCPEHETERINMYCELCRRVVCHLCKLGGNHANHRVTTMSSA | -0.081 ± 0.063 |
| KILMCPEHETERINMYCELCRRTVCHLCKLGGNHANHRVTTMSSA | 0.019 ± 0.08 |
| KILMCPEHETERINMYCELCRRKVCHLCKLGGNHANHRVTTMSSA | -0.146 ± 0.059 |
| KILMCPEHETERINMYCELCRRNVCHLCKLGGNHANHRVTTMSSA | -0.032 ± 0.077 |
| KILMCPEHETERINMYCELCRRIVCHLCKLGGNHANHRVTTMSSA | -0.373 ± 0.066 |
| KILMCPEHETERINMYCELCRRYVCHLCKLGGNHANHRVTTMSSA | -0.069 ± 0.098 |
| KILMCPEHETERINMYCELCRRPNCHLCKLGGNHANHRVTTMSSA | -0.49 ± 0.09 |
| KILMCPEHETERINMYCELCRRPECHLCKLGGNHANHRVTTMSSA | -0.293 ± 0.062 |
| KILMCPEHETERINMYCELCRRPQCHLCKLGGNHANHRVTTMSSA | -0.431 ± 0.08 |

| Variant | abundance fitness |
| --- | --- |
| KILMCPEHETERINMYCELCRRPWCHLCKLGGNHANHRVTTMSSA | -0.351 ± 0.056 |
| KILMCPEHETERINMYCELCRRPCCHLCKLGGNHANHRVTTMSSA | -0.107 ± 0.11 |
| KILMCPEHETERINMYCELCRRPKCHLCKLGGNHANHRVTTMSSA | -0.533 ± 0.077 |
| KILMCPEHETERINMYCELCRRPPCHLCKLGGNHANHRVTTMSSA | -0.501 ± 0.064 |
| KILMCPEHETERINMYCELCRRPLCHLCKLGGNHANHRVTTMSSA | -0.129 ± 0.058 |
| KILMCPEHETERINMYCELCRRPRCHLCKLGGNHANHRVTTMSSA | -0.44 ± 0.055 |
| KILMCPEHETERINMYCELCRRPMCHLCKLGGNHANHRVTTMSSA | -0.133 ± 0.066 |
| KILMCPEHETERINMYCELCRRPSCHLCKLGGNHANHRVTTMSSA | -0.446 ± 0.059 |
| KILMCPEHETERINMYCELCRRPDCHLCKLGGNHANHRVTTMSSA | -0.453 ± 0.094 |
| KILMCPEHETERINMYCELCRRPACHLCKLGGNHANHRVTTMSSA | -0.153 ± 0.056 |
| KILMCPEHETERINMYCELCRRPVAHLCKLGGNHANHRVTTMSSA | -0.603 ± 0.05 |
| KILMCPEHETERINMYCELCRRPVDHLCKLGGNHANHRVTTMSSA | -0.553 ± 0.11 |
| KILMCPEHETERINMYCELERRPVCHLCKLGGNHANHRVTTMSSA | -0.491 ± 0.061 |
| KILMCPEHETERINMYCELFRRPVCHLCKLGGNHANHRVTTMSSA | -1.37 ± 0.14 |
| KILMCPEHETERINMYCELIRRPVCHLCKLGGNHANHRVTTMSSA | -1.01 ± 0.11 |
| KILMCPEHETERINMYCELKRRPVCHLCKLGGNHANHRVTTMSSA | -0.547 ± 0.079 |
| KILMCPEHETERINMYCELHRRPVCHLCKLGGNHANHRVTTMSSA | -0.665 ± 0.13 |
| KILMCPEHETERINMYCELDRRPVCHLCKLGGNHANHRVTTMSSA | -0.393 ± 0.093 |
| KILMCPEHETERINMYCELLRRPVCHLCKLGGNHANHRVTTMSSA | -0.591 ± 0.066 |
